Reference: patent publication US20260191954A1, “COMPOSITIONS AND METHODS FOR NEOADJUVANT TREATMENT IN CANCER” (INNATE PHARMA, priority 2022, published 2026)
Several values for one entry are separate records, joined by “and”; a condition that tells them apart may be missing. Equal values may be shown once.

Tests used:
[1] = biological target: T1, free membrane CD39 (mCD39) on monocytes (Homo sapiens, UniProt P49961); assay: Indirect response PD model: IPH5201 concentration vs free mCD39 on monocytes, phase 1 patients; assay type: in vivo
T1 construct: endogenous in cells; host or cells: monocytes and B cells in patients' blood
T1 sequence (P49961 1-510): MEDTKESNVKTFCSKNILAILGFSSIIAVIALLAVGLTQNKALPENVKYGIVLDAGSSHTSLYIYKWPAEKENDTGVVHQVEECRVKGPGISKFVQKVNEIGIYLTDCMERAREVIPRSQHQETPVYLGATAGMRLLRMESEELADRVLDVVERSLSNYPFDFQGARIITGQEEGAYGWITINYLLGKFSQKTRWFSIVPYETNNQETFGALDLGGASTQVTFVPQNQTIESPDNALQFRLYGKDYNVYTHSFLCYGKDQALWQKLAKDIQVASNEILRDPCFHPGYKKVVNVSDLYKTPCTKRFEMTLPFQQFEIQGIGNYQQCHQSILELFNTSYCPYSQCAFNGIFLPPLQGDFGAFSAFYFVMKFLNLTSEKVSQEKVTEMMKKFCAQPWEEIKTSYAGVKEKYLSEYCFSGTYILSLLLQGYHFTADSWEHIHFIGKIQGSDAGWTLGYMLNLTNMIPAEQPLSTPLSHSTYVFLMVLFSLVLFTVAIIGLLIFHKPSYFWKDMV
Text: PK/PD modelling and simulation were used to guide selection of doses. IPH5201 PK data from 45 patients and PD data of free membrane CD39 (mCD39) occupancy on monocytes from 43 patients were available.
An indirect response PD model (inhibition on Kin) was then built to describe the relationship between IPH5201 concentrations and free mCD39 on monocytes (FIG. 10). The model accurately predicted CD39free+ of monocytes (%). […] The final indirect response model was then used for parametric simulation.

[2] = biological target: T2, CD39 enzyme activity (Homo sapiens, UniProt P49961); assay: Tumoral CD39 enzyme activity in patient biopsies (Wachstein-Meisel assay); assay type: in vivo; settings: for Significant overall decrease in CD39 enzymatic activity?: Day 15 vs screening biopsy
T2 construct: Tumour samples were obtained from patients with pancreatic cancer and assessed for CD39 enzyme activity; from tissue; host or cells: patients' tumour biopsies (tumour, stroma, vasculature), screening vs Day 15
T2 sequence (P49961 1-510): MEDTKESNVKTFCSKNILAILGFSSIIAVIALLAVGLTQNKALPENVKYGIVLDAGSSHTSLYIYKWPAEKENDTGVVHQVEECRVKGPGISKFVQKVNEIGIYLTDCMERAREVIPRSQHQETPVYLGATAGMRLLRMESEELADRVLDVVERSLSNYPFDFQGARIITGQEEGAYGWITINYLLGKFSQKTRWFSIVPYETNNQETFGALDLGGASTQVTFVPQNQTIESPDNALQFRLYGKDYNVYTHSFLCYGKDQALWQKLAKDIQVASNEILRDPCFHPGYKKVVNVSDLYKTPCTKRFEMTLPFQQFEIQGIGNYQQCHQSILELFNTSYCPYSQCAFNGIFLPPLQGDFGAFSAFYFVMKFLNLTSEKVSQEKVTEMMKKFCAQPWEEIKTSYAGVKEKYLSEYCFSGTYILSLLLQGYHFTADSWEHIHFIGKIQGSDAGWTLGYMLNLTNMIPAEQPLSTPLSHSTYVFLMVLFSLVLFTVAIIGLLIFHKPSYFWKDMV

[3] = biological target: T3, recombinant human CD39 protein (huCD39) (Homo sapiens, UniProt P49961); assay: eATP release by H1703 (CD39-) cells incubated with recombinant huCD39, with or without IPH5201, then docetaxel; assay type: cell-based; settings: H1703 cells + huCD39 400 ng/ml + docetaxel 0.1 μM; IPH5201 10 μg/mL; 40 h; FIG. 3A
T3 sequence (P49961 38-478 limits assumed): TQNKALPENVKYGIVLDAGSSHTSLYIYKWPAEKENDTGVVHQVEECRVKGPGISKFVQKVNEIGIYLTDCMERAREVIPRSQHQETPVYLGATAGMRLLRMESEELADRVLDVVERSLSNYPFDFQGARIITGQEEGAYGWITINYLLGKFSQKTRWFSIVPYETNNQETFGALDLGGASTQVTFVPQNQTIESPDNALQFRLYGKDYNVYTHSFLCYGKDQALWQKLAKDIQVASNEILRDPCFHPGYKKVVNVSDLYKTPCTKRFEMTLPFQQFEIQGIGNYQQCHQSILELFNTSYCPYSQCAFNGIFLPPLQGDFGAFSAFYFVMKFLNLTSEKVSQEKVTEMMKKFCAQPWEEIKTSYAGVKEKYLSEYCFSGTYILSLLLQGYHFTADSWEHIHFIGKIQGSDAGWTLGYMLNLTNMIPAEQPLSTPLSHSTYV
Protocol: H1703 (CD39−) cells were incubated with recombinant human CD39 protein (huCD39) (400 ng/ml) to mimic soluble CD39 in tumor microenvironment with or without IPH5201 (humanized anti-CD39 antibody having the respective heavy and light chain amino acid sequences of SEQ ID NOS: 10 and 11) at 10 μg/mL and then treated with docetaxel (0.1 μM). The measure of extracellular ATP (eATP) release was performed 40 h after docetaxel treatment.
OAW42 (CD39+) cells were incubated with 10 or 50 μg/mL of IPH5201 and treated with a dose range of docetaxel. The measure of eATP release was performed 30 h after docetaxel treatment. eATP was measured in the cell culture supernatant with a luminescent-based assay (CellTiter-Glo®) and expressed in Luminescence Arbitrary Unit (AU). Means+/−SD.

B1: IPH5201: humanized anti-CD39 antibody having the respective heavy and light chain amino acid sequences of SEQ ID NOS: 10 and 11 (antibody)
heavy: QVQLVQSGAEVKKPGASVKVSCKASGYTFTDYNMHWVRQAPGQRLEWIGYIVPLNGGSTFNQKFKGRATITVDTSARTAYMELSSLRSEDTAVYYCARGGTRFAYWGQGTLVTVSSASTKGPSVFPLAPSSKSTSGGTAALGCLVKDYFPEPVTVSWNSGALTSGVHTFPAVLQSSGLYSLSSVVTVPSSSLGTQTYICNVNHKPSNTKVDKRVEPKSCDKTHTCPPCPAPEAEGAPSVFLFPPKPKDTLMISRTPEVTCVVVDVSHEDPEVKFNWYVDGVEVHNAKTKPREEQYNSTYRVVSVLTVLHQDWLNGKEYKCKVSNKALPSSIEKTISKAKGQPREPQVYTLPPSREEMTKNQVSLTCLVKGFYPSDIAVEWESNGQPENNYKTTPPVLDSDGSFFLYSKLTVDKSRWQQGNVFSCSVMHEALHNHYTQKSLSLSPGK
light: DIVMTQSPDSLAVSLGERATINCRASESVDNFGVSFMYWFQQKPGQPPKLLIYGASNQGSGVPDRFSGSGSGTDFTLTISSLQAEDVAVYYCQQTKEVPYTFGGGTKVEIKRTVAAPSVFIFPPSDEQLKSGTASVVCLLNNFYPREAKVQWKVDNALQSGNSQESVTEQDSKDSTYSLSSTLTLSKADYEKHKVYACEVTHQGLSSPVTKSFNRGEC
[1]; indirect response PD model (inhibition on Kin), model parameter
  Production rate constant: 20.5 h⁻¹
[1]; indirect response PD model, monocytes
  Maximum inhibition (IMAX) of CD39free+: 0.926 and 0.92
[2]; 3000 mg dose of IPH5201
  tumoral CD39 enzymatic activity: showed a decrease in enzymatic activity
[2]; Patient 1, Cohort 1000 mg, NSCLC (squamous)
  Significant overall decrease in CD39 enzymatic activity?: No
[2]; Patient 3, Cohort 1000 mg, Pancreatic
  Significant overall decrease in CD39 enzymatic activity?: Yes
[2]; Patient 4, Cohort 3000 mg, Pancreatic
  Significant overall decrease in CD39 enzymatic activity?: Yes
[2]; Patient 5, Cohort 3000 mg, Pancreatic
  Significant overall decrease in CD39 enzymatic activity?: Yes
[2]; Patient 6, Cohort 3000 mg, Pancreatic
  Significant overall decrease in CD39 enzymatic activity?: Yes
[2]; Patient 7, Cohort 3000 mg, NSCLC (squamous)
  Significant overall decrease in CD39 enzymatic activity?: Yes
[2]; patients with available samples
  patients in whom tumoral CD39 enzymatic activity decreased: 5/8
[3]
  eATP release reduced by added huCD39: restored
